Laboratory results reported in patent US20230072133A1 (WUXI BIOLOGICS IRELAND, published 2023).

How the values were obtained:
[1] = target: T1, Cynomolgus monkey PD-L1, full length, on transfected cells (W315-293F.cynoPro1.2A2) (cynomolgus monkey, UniProt G7PSE7 19-290); assay: FACS on cyno PD-L1 expressing 293F cells
T1 construct: also called cyno PD-L1; cell surface cyno PD-L1
Experimental: (§1) The binding of testing antibodies to cynomolgus monkey or mouse PD-L1 was determined by FACS. Various concentrations of testing antibody were incubated with cynomolgus PD-L1-expressing W315-293F.cynoPro1.2A2 cells or mouse PD-L1 expressing W315-293F.mPro1.C1 cells at 4° C. for 1 hour, and then the binding of antibodies to the surface of the cells was detected by PE-labeled goat anti-human IgG-Fc antibody (Jackson Immuno Research). MFI of the cells was measured by a flow cytometer and analyzed by FlowJo.

Human TGF-β3 [2] = target: T2, Human TGF-β3 (human, UniProt P10600 301-412); assay: ELISA, plate coated with human TGF-β3, antibody titrated, HRP goat anti-human IgG
T2 construct: also called TGF433 [sic]
T2 sequence (looked up): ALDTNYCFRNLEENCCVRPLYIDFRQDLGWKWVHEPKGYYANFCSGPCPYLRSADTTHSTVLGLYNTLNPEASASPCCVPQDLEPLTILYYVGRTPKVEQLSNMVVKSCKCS
Experimental: (§2) The binding of antibodies to human TGF-β1, TGF-β2 and TGF-β3 was determined by ELISA. Plates were coated with human TGF-β1, TGF-β2 or TGF-β3 overnight at 4° C., respectively. After blocking and washing, various concentrations of testing antibodies were added to the plates and incubated at room temperature for 1 hour. The plates were then washed and incubated with HRP-labeled goat anti-human IgG antibody (Bethyl) for 1 hour. After washing, TMB substrate was added and the color reaction was stopped by 2M HCl. The absorbance at 450 nm and 540 nm was read using a microplate reader (SpectraMax M5e).

[3] = target: T3, Human PD-L1, full length, on transfected cells (W315-CHO-K1.hProl.C11) (human, UniProt Q9NZQ7 19-290); assay: FACS on human PD-L1 expressing CHO-K1 cells
T3 construct: whole, on cells; Also used here for the human PD-L1 on the artificial APC (CHO-K1 with human PD-L1 and OKT3 scFv) of the reporter gene assay; also called hPD-L1; cell surface human PD-L1
T3 sequence (Q9NZQ7 19-290): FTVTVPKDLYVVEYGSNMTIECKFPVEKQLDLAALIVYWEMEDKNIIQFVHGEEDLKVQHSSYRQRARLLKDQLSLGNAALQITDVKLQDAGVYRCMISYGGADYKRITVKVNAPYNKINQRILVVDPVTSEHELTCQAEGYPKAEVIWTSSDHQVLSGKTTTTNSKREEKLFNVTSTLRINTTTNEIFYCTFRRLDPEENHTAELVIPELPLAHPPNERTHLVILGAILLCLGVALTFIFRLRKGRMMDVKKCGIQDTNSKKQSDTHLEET
Experimental: (§3) Various concentrations of testing antibodies were incubated with hPD-L1 expressing W315-CHO-K1.hProl.C11 cells at 4° C. for 1 hour. After washing, the cells were incubated with PE-labeled goat anti-human IgG-Fc antibody (Jackson Immuno Research). Finally, the MFI of the cells was measured by a flow cytometer and analyzed by FlowJo.

[4] = target: T3, Human PD-L1, full length, on …; assay: cell-based or functional assay
Human TGF-β1 [5] = target: T4, Human TGF-β1 (human, UniProt P01137 279-390); assay: cell-based or functional assay
T4 sequence (P01137 279-390 limits assumed): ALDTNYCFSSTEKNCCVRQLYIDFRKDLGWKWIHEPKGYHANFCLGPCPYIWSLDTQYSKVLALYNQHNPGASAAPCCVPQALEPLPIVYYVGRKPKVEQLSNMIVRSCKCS

Human TGF-β1 [6] = target: T4, Human TGF-β1; assay: dual binding ELISA coating with TGF-β1, WT1122 after 0 to 14 days in human serum at 37 °C, detected with biotinylated human PD-L1 ECD and streptavidin-HRP [upper panel]
Experimental: After blocking and washing, various concentrations of testing antibodies were added to the plates and incubated at room temperature for 1 hour. […] After washing, TMB substrate was added and the color reaction was stopped by 2M HCl. The absorbance at 450 nm and 540 nm was read using a microplate reader (SpectraMax M5e).
(§4) The samples were quickly thawed immediately prior to the stability test.

Human FcRn = Human FcRn (human, UniProt P55899 24-297; P61769 21-119); assay: SPR (Biacore 8K), antibody immobilized on CM5, human FcRn as analyte, steady-state model, pH 6.0
Sequence of Human FcRn (P55899 24-297 limits assumed, chain 1 of 2): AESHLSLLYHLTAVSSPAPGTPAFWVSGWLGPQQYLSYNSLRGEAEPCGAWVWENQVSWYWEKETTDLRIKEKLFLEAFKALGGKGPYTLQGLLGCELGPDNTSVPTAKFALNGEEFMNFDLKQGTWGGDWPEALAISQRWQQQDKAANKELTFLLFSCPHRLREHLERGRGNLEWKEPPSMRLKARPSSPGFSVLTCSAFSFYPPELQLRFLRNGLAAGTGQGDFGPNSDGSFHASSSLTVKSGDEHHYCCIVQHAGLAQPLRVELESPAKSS
Sequence of Human FcRn (P61769 21-119 limits assumed, chain 2 of 2): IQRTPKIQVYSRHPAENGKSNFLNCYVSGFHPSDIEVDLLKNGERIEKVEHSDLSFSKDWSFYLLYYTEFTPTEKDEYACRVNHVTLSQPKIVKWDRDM
Experimental: Each antibody was immobilized on CM5 sensor chip (GE). […] The chip was then regenerated by 10 mM glycine (pH 1.5) after each binding cycle. The sensorgrams of blank surface and buffer channel were subtracted from the test sensorgrams.

[7] = target: T3, Human PD-L1, full length, on …; assay: PD-L1 FACS on human PD-L1 expressing cells, WT1122 after 0 to 14 days in human serum at 37 °C [lower panel]
Experimental: as §3, §4

[8] = target: T5, Mouse PD-L1, full length, on transfected cells (W315-293F.mPro1.C1) (mouse, UniProt Q9EP73 19-290); assay: FACS on mouse PD-L1 expressing 293F cells
T5 construct: whole, on cells; also called cell surface mouse PD-L1
T5 sequence (Q9EP73 19-290): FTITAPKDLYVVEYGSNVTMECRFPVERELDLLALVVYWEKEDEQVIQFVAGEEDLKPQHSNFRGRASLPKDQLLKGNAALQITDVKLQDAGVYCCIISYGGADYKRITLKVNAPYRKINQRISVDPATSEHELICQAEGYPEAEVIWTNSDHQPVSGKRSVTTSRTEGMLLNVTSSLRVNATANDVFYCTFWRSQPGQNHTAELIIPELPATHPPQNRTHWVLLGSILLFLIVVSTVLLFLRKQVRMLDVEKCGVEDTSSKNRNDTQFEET
Experimental: as §1

Human TGF-β3 [9] = target: T2, Human TGF-β3; assay: ELISA, plate coated with human TGF-β3
Experimental: as §2

[10] = target: T6, Human PD-L1 extracellular domain (ECD) antigen His tagged (human, UniProt Q9NZQ7 19-238); assay: SPR (Biacore 8K), antibody captured by anti-human IgG Fc, PD-L1 as analyte, 1:1 model
T6 construct: extracellular domain; The SPR and the PD-L1-coated ELISA say only 'human PD-L1'; also called human PD-L1 ECD protein; Human PD-L1 (SPR analyte); not shown: His tag
T6 sequence (Q9NZQ7 19-238): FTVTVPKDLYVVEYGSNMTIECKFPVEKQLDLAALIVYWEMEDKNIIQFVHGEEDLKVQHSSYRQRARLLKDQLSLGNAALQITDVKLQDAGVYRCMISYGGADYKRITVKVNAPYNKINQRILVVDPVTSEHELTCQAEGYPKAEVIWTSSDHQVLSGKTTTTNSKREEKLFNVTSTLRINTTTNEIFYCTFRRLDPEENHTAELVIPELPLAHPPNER
Experimental: (§5) Antibody was captured on an anti-human IgG Fc antibody immobilized CM5 sensor chip (GE). Human or cyno PD-L1 at different concentrations were injected over the sensor chip at a flow rate of 30 μL/min for an association phase of 180 s, followed by 3600 s dissociation. Mouse PD-L1 at different concentrations were injected over the sensor chip at a flow rate of 30 μL/min for an association phase of 120 s, followed by 1200 s dissociation. The chip was regenerated by 10 mM glycine (pH 1.5) after each binding cycle.
(§6) The sensorgrams of blank surface and buffer channel were subtracted from the test sensorgrams. […] The experimental data was fitted by 1:1 model using Langmiur analysis. Molecular weight of 40 kDa was used to calculate the molar concentration of human, mouse and cyno PD-L1.

[11] = target: T7, Cynomolgus monkey (cyno) PD-L1 ECD antigen His tagged (cynomolgus monkey, UniProt G7PSE7 19-238); assay: as above
T7 construct: also called Cyno PD-L1 (SPR analyte)
T7 sequence (G7PSE7 entry or part of it limits assumed): as the sequence (Q9NZQ7 19-238) above, with A33T, A34S, S62N, R68Q, Q82R, F173L, T185A, T192I, H215L counted along it
Experimental: as §5, §6

Human TGF-β3 [12] = target: T2, Human TGF-β3; assay: SPR (Biacore 8K), antibody immobilized on CM5, TGFβ as analyte, 1:1 model
Experimental: (§7) Antibody binding affinity to TGFβ was detected by SPR assay using Biacore 8K. Each antibody was immobilized on CM5 sensor chip (GE). Human TGFβ1 and TGFβ3 at different concentrations were injected over the sensor chip at a flow rate of 50 uL/min for an association phase of 240 s, followed by 1200 s dissociation. Human TGFβ2 at different concentrations were injected over the sensor chip at a flow rate of 50 uL/min for an association phase of 240 s, followed by 300 s dissociation. The chip was regenerated by 10 mM glycine (pH 1.5) after each binding cycle.
(§8) The sensorgrams of blank surface and buffer channel were subtracted from the test sensorgrams. The experimental data was fitted by 1:1 model using Langmiur analysis. Molecular weight of 22 kDa, 24 kDa and 22 kDa were used to calculate the molar concentration of analyte TGFβ1, TGFβ2 and TGFβ3, respectively. The results are shown in […]

Human TGF-β1 [13] = target: T4, Human TGF-β1; assay: as above
Experimental: as §7, §8

Human TGF-β1 [14] = target: T4, Human TGF-β1; assay: ELISA, plate coated with human TGF-β1, antibody titrated, HRP goat anti-human IgG
Experimental: as §2

[15] = target: T8, Mouse PD-L1 (soluble SPR analyte) (mouse, UniProt Q9EP73 19-239, limits assumed); assay: SPR (Biacore 8K), antibody captured by anti-human IgG Fc, mouse PD-L1 as analyte, 0-300 s curves fitted
T8 construct: 40 kDa used for molarity
T8 sequence (Q9EP73 19-239 limits assumed): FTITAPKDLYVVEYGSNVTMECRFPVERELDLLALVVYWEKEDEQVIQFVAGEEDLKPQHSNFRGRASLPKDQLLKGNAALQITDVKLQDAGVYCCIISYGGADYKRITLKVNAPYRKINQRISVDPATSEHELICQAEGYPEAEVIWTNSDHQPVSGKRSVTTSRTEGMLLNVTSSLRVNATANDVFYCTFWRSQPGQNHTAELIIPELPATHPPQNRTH
Experimental: as §5, §6

Human TGF-β2 [16] = target: T9, Human TGF-β2 (human, UniProt P61812 303-414); assay: ELISA, antibody immobilized, soluble TGF-β2 titrated; ELISA with antibody immobilized and soluble TGF-β2 titrated: binds
T9 sequence (looked up): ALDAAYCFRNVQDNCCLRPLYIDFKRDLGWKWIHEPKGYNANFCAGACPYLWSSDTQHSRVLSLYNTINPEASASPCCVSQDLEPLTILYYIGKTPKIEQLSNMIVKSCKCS
Experimental: The binding of antibody to human TGF-β2 was also determined by ELISA immobilized with testing antibodies. After blocking and washing, various concentrations of TGF-β2 were added to the plates and incubated at room temperature for 1 hour. The plates were then washed and incubated with biotinylated TGF-β2 detection antibody (R&D, DY240) for 1 hour, followed by streptavidin-HRP for 1 hour. After washing, TMB substrate was added and the color reaction was stopped by 2M HCl. The absorbance at 450 nm and 540 nm was read using a microplate reader (SpectraMax M5e).

Human TGF-β2 [17] = target: T9, Human TGF-β2; assay: SPR (Biacore 8K), antibody immobilized on CM5, TGFβ as analyte, 1:1 model; SPR with WT1122 as ligand on the chip and soluble TGF-β2 as analyte: binds
Experimental: as §7, §8

[18] = target: T3, Human PD-L1, full length, on …; assay: competition FACS: blocks mFc tagged human PD-1 binding to human PD-L1 expressing cells
Experimental: MFI of the cells was measured by a flow cytometer and analyzed by FlowJo.

Human TGF-β1 [19] = target: T4, Human TGF-β1; assay: ELISA, plate coated with human TGF-β1
Experimental: as §2

T1 sequence (G7PSE7 entry or part of it limits assumed): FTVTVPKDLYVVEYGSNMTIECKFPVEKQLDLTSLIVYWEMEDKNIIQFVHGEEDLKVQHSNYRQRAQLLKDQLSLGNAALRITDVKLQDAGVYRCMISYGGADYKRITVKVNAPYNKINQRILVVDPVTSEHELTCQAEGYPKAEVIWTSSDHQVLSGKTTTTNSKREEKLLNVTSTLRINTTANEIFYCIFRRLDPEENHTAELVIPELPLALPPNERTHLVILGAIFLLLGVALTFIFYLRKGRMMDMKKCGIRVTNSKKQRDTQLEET

B1: WT1122-U14T1.G15-1.uIgG1 (antibody)
heavy: not shown
light: SYELTQPPSVSVSPGQTASITCSGSELPKRYAYWYQQKPGQSIVRVIYKDSERPSGISERFSGSSSGNTATLTISGTQAMDEADYYCSSTYGDRKLPIFGGGTKLTVLGQPKAAPSVTLFPPSSEELQANKATLVCLISDFYPGAVTVAWKADSSPVKAGVETTTPSKQSNNKYAASSYLSLTPEQWKSHKSYSCQVTHEGSTVEKTVAPTECS
In the case of B1, the EC50 [1] is reported as 1.08 nM, the “EC50 (read off the curve)” value (Human TGF-β3 [2]) is reported as about 0.8 nM and the EC50 [3] is reported as 0.7 nM. The “hPD-1/PD-L1 signaling blockade IC50, NFAT luciferase reporter gene assay (RGA)” value [4] was 0.31 nM, the “TGF-β1 blockade IC50, SBE luciferase reporter gene assay (RGA)” value (Human TGF-β1 [5]) was 1.2 nM and the “EC50 (read off the curve)” value (Human TGF-β1 [6]) was about 0.4 nM. The Kd (Human FcRn) was 2570 nM, the “EC50 (read off the curve)” value [7] was about 0.2 nM and the EC50 [8] was 1.2 nM. It also gave an EC50 (Human TGF-β3 [9]) of 0.8 nM, a Kd [10] of 0.695 nM and a koff [10] of 0.00168 s⁻¹. It also gave a kon [10] of 2.41e+06 M⁻¹ s⁻¹, a Kd [11] of 0.446 nM and a koff [11] of 0.00135 s⁻¹. For the same binder, the kon [11] was 3.03e+06 M⁻¹ s⁻¹, the Kd (Human TGF-β3 [12]) was 0.00162 nM and the koff (Human TGF-β3 [12]) was 9.35e-05 s⁻¹. For the same binder, the kon (Human TGF-β3 [12]) was 5.78e+07 M⁻¹ s⁻¹, the Kd (Human TGF-β1 [13]) was 0.00165 nM and the koff (Human TGF-β1 [13]) was 0.000206 s⁻¹. For the same binder, the kon (Human TGF-β1 [13]) was 1.25e+08 M⁻¹ s⁻¹, the “EC50 (read off the curve)” value (Human TGF-β1 [14]) was about 0.5 nM and the Kd [15] was 1080 nM. The EC50 (Human TGF-β2 [16]) was 0.07 nM, the Kd (Human TGF-β2 [17]) was 0.369 nM and the koff (Human TGF-β2 [17]) was 0.0149 s⁻¹. For the same binder, the kon (Human TGF-β2 [17]) was 4.02e+07 M⁻¹ s⁻¹, the IC50 [18] was 0.04 nM and the EC50 (Human TGF-β1 [19]) was 0.5 nM.
